This passage reports Kd results from patent publication US20260167699A1 (Chugai, published 2026).

For this assay, the target named is T1, FcγRIIIaV (human, UniProt P08637 17-208).
T1 construct: extracellular domain
Briefly: SPR (Biacore), antibody captured, FcγR as analyte, 1:1 Langmuir fit. (In general: SPR reads the build-up and loss of mass on a sensor chip optically.)

T1 sequence (P08637 other isoform, or with tags, fused parts or gaps): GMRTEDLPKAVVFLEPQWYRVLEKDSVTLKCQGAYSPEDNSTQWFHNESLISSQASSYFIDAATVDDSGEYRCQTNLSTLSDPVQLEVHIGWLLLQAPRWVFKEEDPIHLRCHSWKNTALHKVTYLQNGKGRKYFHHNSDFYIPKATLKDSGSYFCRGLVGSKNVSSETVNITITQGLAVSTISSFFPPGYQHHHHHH
Experimental: The antibody of interest was analyzed for its interaction with FcγR using a BiaCore™ T100, BiaCore™ A100, or BiaCore™ 4000 surface plasmon resonance system (GE Healthcare Japan Corp.). The running buffer used was HBS-EP+ (GE Healthcare Japan Corp.). The assay temperature was set to 25° C. The sensor chips used were: a chip prepared by immobilizing antigenic peptides onto Series S Sensor Chip CM5 (GE Healthcare Japan Corp.) by the amine coupling method; a chip prepared by immobilizing antigenic peptides biotinylated in advance onto Series S Sensor Chip SA (certified) (GE Healthcare Japan Corp.) through their interaction; a chip prepared by immobilizing protein L (ACTIGEN, BioVision, Inc.) onto Series S Sensor Chip CM5 (GE Healthcare Japan Corp.); and a chip prepared by immobilizing protein A/G (Thermo Fisher Scientific K.K.) onto Series S Sensor Chip CM5 (GE Healthcare Japan Corp.). The antibody of interest was captured onto any of these chips and allowed to interact with FcγR diluted with a running buffer. The antibody captured on the chip was washed off through the reaction of 10 mM glycine-HCl (pH 1.5) to regenerate the chip, which was repetitively used.

B1: Kn125-L2b-3 (antibody, human IgG1, kappa)
heavy 1: QDQLVQSGAEVKKPGASVKVSCKASGFNIKDTYIQWVRQAPGQGLEWMGRIDPLRKQTKYREKFEGRVTITADTSTNTAYMELSSLRSEDTAVYYCVRSGREFDYWGQGTLVTVSSASTKGPSVFPLAPSSKSTSGGTAALGCLVKDYFPEPVTVSWNSGALTSGVHTFPAVLQSSGLYSLSSVVTVPSSSLGTQTYICNVNHKPSNTKVDKKVEPKSCDKTHTCPPCPAPELLGGPSVFLFPPKPKDTLMISRTPEVTCVVVDVSHEEPEVKFNWYVDGVEVHNAKTKPREEQYNSTYRVVSVLTVLHQDWLNGKEYKCKVSNDALPMPIEETISKAKGQPREPQVYTLPPSRCELTKNQVSLSCAVKGFYPSDIAVEWESNGQPENNYKTTPPVLDSDGSFFLVSKLTVDKSRWQQGNVFSCSVMHEALHNHYTQKSLSLSP
heavy 2: QDQLVQSGAEVKKPGASVKVSCKASGFNIKDTYIQWVRQAPGQGLEWMGRIDPLRKQTKYREKFEGRVTITADTSTNTAYMELSSLRSEDTAVYYCVRSGREFDYWGQGTLVTVSSASTKGPSVFPLAPSSKSTSGGTAALGCLVKDYFPEPVTVSWNSGALTSGVHTFPAVLQSSGLYSLSSVVTVPSSSLGTQTYICNVNHKPSNTKVDKKVEPKSCDKTHTCPPCPAPEYQWGPMVFLFPPKPKDTLMISRTPEVTCVVVDVSDEEGGSPEVKFNWYVDGVEVHNAKTKPREEQYNATYRVVSVLTVLHQDWLNGKEYKCKVSNKALPAPIEKTISKAKGQPREPQVCTLPPSRDELTKNQVSLWCLVKGFYPSDIAVEWESNGQPENNYKTTPPVLDSDGSFFLYSKLTVDKSRWQQGNVFSCSVMHEALHNHYTQKSLSLSP
light: DIQMTQSPSSLSASVGDRVTITCRASQDIHKYIAWYQQKPGQAPRLLIQYTSTLQPGVPSRFSGSGSGTDYTFTISSLQPEDIATYYCLQYEQLRTFGGGTKVEIKRTVAAPSVFIFPPSDEQLKSGTASVVCLLNNFYPREAKVQWKVDNALQSGNSQESVTEQDSKDSTYSLSSTLTLSKADYEKHKVYACEVTHQGLSSPVTKSFNRGEC
notes: heterodimerized anti-EREG antibody: altered H240-Kn125 chain (Gly/Ser peptide in loop) with H240-Hl076 and L73-k0
B1: the Kd (usually a measure of binding affinity in units of concentration) turned out to be 7.8 nM.

B2: Kn125-L2a-9 (antibody, human IgG1, kappa)
heavy 1: QDQLVQSGAEVKKPGASVKVSCKASGFNIKDTYIQWVRQAPGQGLEWMGRIDPLRKQTKYREKFEGRVTITADTSTNTAYMELSSLRSEDTAVYYCVRSGREFDYWGQGTLVTVSSASTKGPSVFPLAPSSKSTSGGTAALGCLVKDYFPEPVTVSWNSGALTSGVHTFPAVLQSSGLYSLSSVVTVPSSSLGTQTYICNVNHKPSNTKVDKKVEPKSCDKTHTCPPCPAPELLGGPSVFLFPPKPKDTLMISRTPEVTCVVVDVSHEEPEVKFNWYVDGVEVHNAKTKPREEQYNSTYRVVSVLTVLHQDWLNGKEYKCKVSNDALPMPIEETISKAKGQPREPQVYTLPPSRCELTKNQVSLSCAVKGFYPSDIAVEWESNGQPENNYKTTPPVLDSDGSFFLVSKLTVDKSRWQQGNVFSCSVMHEALHNHYTQKSLSLSP
heavy 2: QDQLVQSGAEVKKPGASVKVSCKASGFNIKDTYIQWVRQAPGQGLEWMGRIDPLRKQTKYREKFEGRVTITADTSTNTAYMELSSLRSEDTAVYYCVRSGREFDYWGQGTLVTVSSASTKGPSVFPLAPSSKSTSGGTAALGCLVKDYFPEPVTVSWNSGALTSGVHTFPAVLQSSGLYSLSSVVTVPSSSLGTQTYICNVNHKPSNTKVDKKVEPKSCDKTHTCPPCPAPEYQWGPMVFLFPPKPKDTLMISRTPEVTCVVVDVSDEGGSGGSGGSEPEVKFNWYVDGVEVHNAKTKPREEQYNATYRVVSVLTVLHQDWLNGKEYKCKVSNKALPAPIEKTISKAKGQPREPQVCTLPPSRDELTKNQVSLWCLVKGFYPSDIAVEWESNGQPENNYKTTPPVLDSDGSFFLYSKLTVDKSRWQQGNVFSCSVMHEALHNHYTQKSLSLSP
light: DIQMTQSPSSLSASVGDRVTITCRASQDIHKYIAWYQQKPGQAPRLLIQYTSTLQPGVPSRFSGSGSGTDYTFTISSLQPEDIATYYCLQYEQLRTFGGGTKVEIKRTVAAPSVFIFPPSDEQLKSGTASVVCLLNNFYPREAKVQWKVDNALQSGNSQESVTEQDSKDSTYSLSSTLTLSKADYEKHKVYACEVTHQGLSSPVTKSFNRGEC
notes: as for B1
As to B2, binding was put at a Kd of 11 nM.

B3: Kn125-L2a-6 (antibody, human IgG1, kappa)
heavy 1: QDQLVQSGAEVKKPGASVKVSCKASGFNIKDTYIQWVRQAPGQGLEWMGRIDPLRKQTKYREKFEGRVTITADTSTNTAYMELSSLRSEDTAVYYCVRSGREFDYWGQGTLVTVSSASTKGPSVFPLAPSSKSTSGGTAALGCLVKDYFPEPVTVSWNSGALTSGVHTFPAVLQSSGLYSLSSVVTVPSSSLGTQTYICNVNHKPSNTKVDKKVEPKSCDKTHTCPPCPAPELLGGPSVFLFPPKPKDTLMISRTPEVTCVVVDVSHEEPEVKFNWYVDGVEVHNAKTKPREEQYNSTYRVVSVLTVLHQDWLNGKEYKCKVSNDALPMPIEETISKAKGQPREPQVYTLPPSRCELTKNQVSLSCAVKGFYPSDIAVEWESNGQPENNYKTTPPVLDSDGSFFLVSKLTVDKSRWQQGNVFSCSVMHEALHNHYTQKSLSLSP
heavy 2: QDQLVQSGAEVKKPGASVKVSCKASGFNIKDTYIQWVRQAPGQGLEWMGRIDPLRKQTKYREKFEGRVTITADTSTNTAYMELSSLRSEDTAVYYCVRSGREFDYWGQGTLVTVSSASTKGPSVFPLAPSSKSTSGGTAALGCLVKDYFPEPVTVSWNSGALTSGVHTFPAVLQSSGLYSLSSVVTVPSSSLGTQTYICNVNHKPSNTKVDKKVEPKSCDKTHTCPPCPAPEYQWGPMVFLFPPKPKDTLMISRTPEVTCVVVDVSDEGGSGGSEPEVKFNWYVDGVEVHNAKTKPREEQYNATYRVVSVLTVLHQDWLNGKEYKCKVSNKALPAPIEKTISKAKGQPREPQVCTLPPSRDELTKNQVSLWCLVKGFYPSDIAVEWESNGQPENNYKTTPPVLDSDGSFFLYSKLTVDKSRWQQGNVFSCSVMHEALHNHYTQKSLSLSP
light: DIQMTQSPSSLSASVGDRVTITCRASQDIHKYIAWYQQKPGQAPRLLIQYTSTLQPGVPSRFSGSGSGTDYTFTISSLQPEDIATYYCLQYEQLRTFGGGTKVEIKRTVAAPSVFIFPPSDEQLKSGTASVVCLLNNFYPREAKVQWKVDNALQSGNSQESVTEQDSKDSTYSLSSTLTLSKADYEKHKVYACEVTHQGLSSPVTKSFNRGEC
notes: as for B1
Take B3: the Kd amounted to 9.2 nM.

B4: Kn125-L2b-9 (antibody, human IgG1, kappa)
heavy 1: QDQLVQSGAEVKKPGASVKVSCKASGFNIKDTYIQWVRQAPGQGLEWMGRIDPLRKQTKYREKFEGRVTITADTSTNTAYMELSSLRSEDTAVYYCVRSGREFDYWGQGTLVTVSSASTKGPSVFPLAPSSKSTSGGTAALGCLVKDYFPEPVTVSWNSGALTSGVHTFPAVLQSSGLYSLSSVVTVPSSSLGTQTYICNVNHKPSNTKVDKKVEPKSCDKTHTCPPCPAPELLGGPSVFLFPPKPKDTLMISRTPEVTCVVVDVSHEEPEVKFNWYVDGVEVHNAKTKPREEQYNSTYRVVSVLTVLHQDWLNGKEYKCKVSNDALPMPIEETISKAKGQPREPQVYTLPPSRCELTKNQVSLSCAVKGFYPSDIAVEWESNGQPENNYKTTPPVLDSDGSFFLVSKLTVDKSRWQQGNVFSCSVMHEALHNHYTQKSLSLSP
heavy 2: QDQLVQSGAEVKKPGASVKVSCKASGFNIKDTYIQWVRQAPGQGLEWMGRIDPLRKQTKYREKFEGRVTITADTSTNTAYMELSSLRSEDTAVYYCVRSGREFDYWGQGTLVTVSSASTKGPSVFPLAPSSKSTSGGTAALGCLVKDYFPEPVTVSWNSGALTSGVHTFPAVLQSSGLYSLSSVVTVPSSSLGTQTYICNVNHKPSNTKVDKKVEPKSCDKTHTCPPCPAPEYQWGPMVFLFPPKPKDTLMISRTPEVTCVVVDVSDEEGGSGGSGGSPEVKFNWYVDGVEVHNAKTKPREEQYNATYRVVSVLTVLHQDWLNGKEYKCKVSNKALPAPIEKTISKAKGQPREPQVCTLPPSRDELTKNQVSLWCLVKGFYPSDIAVEWESNGQPENNYKTTPPVLDSDGSFFLYSKLTVDKSRWQQGNVFSCSVMHEALHNHYTQKSLSLSP
light: DIQMTQSPSSLSASVGDRVTITCRASQDIHKYIAWYQQKPGQAPRLLIQYTSTLQPGVPSRFSGSGSGTDYTFTISSLQPEDIATYYCLQYEQLRTFGGGTKVEIKRTVAAPSVFIFPPSDEQLKSGTASVVCLLNNFYPREAKVQWKVDNALQSGNSQESVTEQDSKDSTYSLSSTLTLSKADYEKHKVYACEVTHQGLSSPVTKSFNRGEC
notes: as for B1
For the molecule B4, the equilibrium dissociation constant (Kd) worked out at 7 nM.

B5: Kn125-L2b-6 (antibody, human IgG1, kappa)
heavy 1: QDQLVQSGAEVKKPGASVKVSCKASGFNIKDTYIQWVRQAPGQGLEWMGRIDPLRKQTKYREKFEGRVTITADTSTNTAYMELSSLRSEDTAVYYCVRSGREFDYWGQGTLVTVSSASTKGPSVFPLAPSSKSTSGGTAALGCLVKDYFPEPVTVSWNSGALTSGVHTFPAVLQSSGLYSLSSVVTVPSSSLGTQTYICNVNHKPSNTKVDKKVEPKSCDKTHTCPPCPAPELLGGPSVFLFPPKPKDTLMISRTPEVTCVVVDVSHEEPEVKFNWYVDGVEVHNAKTKPREEQYNSTYRVVSVLTVLHQDWLNGKEYKCKVSNDALPMPIEETISKAKGQPREPQVYTLPPSRCELTKNQVSLSCAVKGFYPSDIAVEWESNGQPENNYKTTPPVLDSDGSFFLVSKLTVDKSRWQQGNVFSCSVMHEALHNHYTQKSLSLSP
heavy 2: QDQLVQSGAEVKKPGASVKVSCKASGFNIKDTYIQWVRQAPGQGLEWMGRIDPLRKQTKYREKFEGRVTITADTSTNTAYMELSSLRSEDTAVYYCVRSGREFDYWGQGTLVTVSSASTKGPSVFPLAPSSKSTSGGTAALGCLVKDYFPEPVTVSWNSGALTSGVHTFPAVLQSSGLYSLSSVVTVPSSSLGTQTYICNVNHKPSNTKVDKKVEPKSCDKTHTCPPCPAPEYQWGPMVFLFPPKPKDTLMISRTPEVTCVVVDVSDEEGGSGGSPEVKFNWYVDGVEVHNAKTKPREEQYNATYRVVSVLTVLHQDWLNGKEYKCKVSNKALPAPIEKTISKAKGQPREPQVCTLPPSRDELTKNQVSLWCLVKGFYPSDIAVEWESNGQPENNYKTTPPVLDSDGSFFLYSKLTVDKSRWQQGNVFSCSVMHEALHNHYTQKSLSLSP
light: DIQMTQSPSSLSASVGDRVTITCRASQDIHKYIAWYQQKPGQAPRLLIQYTSTLQPGVPSRFSGSGSGTDYTFTISSLQPEDIATYYCLQYEQLRTFGGGTKVEIKRTVAAPSVFIFPPSDEQLKSGTASVVCLLNNFYPREAKVQWKVDNALQSGNSQESVTEQDSKDSTYSLSSTLTLSKADYEKHKVYACEVTHQGLSSPVTKSFNRGEC
notes: as for B1
B5 yielded an equilibrium dissociation constant (Kd) of 6.3 nM.
